Measurements from US7193044B1, “Compounds and methods for regulating apoptosis, and methods of making and screening for compounds that regulate apoptosis” (Immunogen, Inc., priority 2000, dated 2007).
“Also recorded” adds a separate entry of the source.

Tests used:
[1] = tested on: BAD phosphorylation in COS-7 cells; test: BAD phosphorylation in COS-7 cells (western blot band-shift); assay type: cell-based; conditions: anti-HA western blot, listed as HA-BAD S112A/S136A
From the text: Mouse FL5.12 cells were then transfected with the expression vector encoding the shorter murine BAD of SEQ ID NO:3 or one of the three BAD mutants. Total mRNA was isolated from the transfected FL5.12 cells, and reverse transcribed into cDNA. The cDNA was then subcloned into the expression vector pcDNA3 so that the amino acid sequence of the BAD or mutant BAD, encoded by the subcloned cDNA, was in-frame and operably linked to an N-terminal hemagglutinin (“HA”) epitope encoded by the expression vector. The expression vectors encoding the HA-tagged shorter murine BAD and mutant BAD were expressed in COS-7 cells. Whole cell lysates (“WCL”) were then prepared from the COS-7 cells expressing the polypeptides. The phosphorylation of the shorter murine BAD of SEQ ID NO:3 and mutant BAD were detected by a western blot of the WCL, probed with an anti-HA antibody (“anti-HA antibody”). […] Of note, each of the BAD mutants resolved as a doublet on a 16% SDS-PAGE, even though in the amino acid sequence of each of the BAD mutants one or both of the serines corresponding to Ser112 and Ser136 were mutated, i.e., substituted with alanine. […]

[2] = biological target: GST-Bcl-XL (Homo sapiens, UniProt Q07817); test: GST-Bcl-XL binding (glutathione bead pull-down) of BAD; conditions: whole cell lysate of COS-7 cells, glutathione bead precipitation, anti-HA blot
Chain of GST-Bcl-XL (Q07817 whole entry): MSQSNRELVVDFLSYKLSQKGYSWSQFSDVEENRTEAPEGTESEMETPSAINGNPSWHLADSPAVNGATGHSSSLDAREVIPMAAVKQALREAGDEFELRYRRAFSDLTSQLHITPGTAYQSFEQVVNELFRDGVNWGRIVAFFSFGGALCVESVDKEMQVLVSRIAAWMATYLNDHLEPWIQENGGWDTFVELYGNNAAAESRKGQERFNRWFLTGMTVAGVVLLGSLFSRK
Method: In order to test whether the additional and novel phosphorylation site on BAD has functional significance, the effect on BAD binding to Bcl-XL was examined. Recombinant Bcl-XL tagged with the glutathione S-transferase (“GST”) moiety (“GST-Bcl-XL”) was incubated with WCL prepared from COS-7 cells expressing the double mutant HA-BAD S112A/S136A, and the HA-BAD S112A/S136A that bound to the GST-Bcl-XL was precipitated with GST beads. […] No HA-BAD S112A/S136A was precipitated with GST beads from the WCL that were not incubated with GST-Bcl-XL (FIG. 1, lane 4).
The ability of full-length BAD and mutant BAD S155A to bind Bcl-XL was also determined (FIG. 3(c)). Full-length BAD (“WT”) and mutant BAD S155A (“S155A”) were produced by in vitro translation and labeled with ^35S-methionine therein. […] Proteins bound to the beads (“Bound”) (lower panel) and samples of the reactions collected prior to incubation with the beads (“Total”) (upper panel) were analyzed by SDS-PAGE followed by autoradiography.
For Bcl-XL binding studies, GST-Bcl-XL (1 mg/ml final concentration) was added to cell lysates derived from BAD expressing cells, and incubated with rotation for two hours at 4° C. […] The beads were then washed with RIPA buffer, the proteins were separated by SDS-PAGE and associated BAD detected by probing the blot with anti-HA antibody.

[3] = tested on: HeLa cells; test: Fluorescence-based beta-galactosidase assay of BAD-induced cell death in transfected HeLa cells; set-up: species or system human; conditions: SFM vs SFM+EGF, 12 hours
Method: FIG. 12(B) is a graphic representation of the results of a β-galactosidase assay. HeLa cells were co-transfected with the β-galactosidase gene and either HA-BAD (“WT”), HA-BAD S155A (“S155A”), HA-BAD S112A/S136A (“S112A/S136A”) or HA-BAD S112A/S136A/S155A (“AAA”). Transfected cells were then cultured in serum-free medium (SFM) or SFM supplemented with EGF (SFM+EGF) for 12 hours. Cell lysates were prepared and BAD-induced cell death was measured by the loss of β-galactosidase activity in a fluorescence-based assay. Fluorescence was measured at 465 nm. Results shown are the average and standard deviation of triplicate transfections (this experiment was repeated two more times with similar results). Expression levels of HA-tagged BAD and BAD mutants in transfected cell lysates were detected by anti-HA western blot analysis: HA-BAD (“WT”), HA-BAD S155A (“A”), HA-BAD S112A/S136A (“AA”), and HA-BAD S112A/S136A/S155A (“AAA”).
FIG. 12(C) is a graphic representation of the results of a β-galactosidase assay. HeLa cells were co-transfected with the β-galactosidase gene and either an empty vector (“CTL”), wild-type BAD (“WT”), the BAD S155A mutant (“S155A”) or the BAD S155D mutant (“S155D”). Cell lysates were prepared and BAD-induced cell death was measured by the loss of β-galactosidase activity in a fluorescence-based assay. Fluorescence was measured at 465 nm. Results shown are the average and standard deviation of triplicate transfections (this experiment was repeated two more times with similar results).
HeLa cells were co-transfected with the β-galactosidase gene and either wild-type BAD, BAD S155A, BAD S112A/S136A or BAD S112A/S136A/S155A. […] Cell lysates were prepared and BAD-induced cell death was measured by the loss of β-galactosidase activity in a fluorescence-based assay. […]
To measure β-gal activity, HeLa cells were plated in 12-well plates at 5×10^4 cells/well one day prior to transfection. […] Beta-gal activity was measured in extracts using a fluorogenic substrate (MUG, BIO-RAD FluorAce™ β-gal Reporter Assay, #170–3150). […]

B1: BAD S112A/S136A: mutant of shorter murine BAD, serines corresponding to Ser112 and Ser136 substituted with alanine (protein)
chain: MFQIPEFEPSEQEDASATDRGLGPSLTEDQPGPYLAPGLLGSNIHQQGRAATNSHHGGAGAMETRSRHSAYPAGTEEDEGMEEELSPFRGRSRAAPPNLWAAQRYGRELRRMSDEFEGSFKGLPRPKSAGTATQMRQSAGWTRIIQSWWDRNLGKGGSTPSQ
modifications: left off: small tags and cut ends
notes: mutant of shorter murine BAD, serines corresponding to Ser112 and Ser136 substituted with alanine
phosphorylation of expressed BAD mutant (lambda phosphatase-sensitive higher molecular weight band) [1]: phosphatase treatment completely eliminated the higher molecular weight band of the doublet; also recorded: do not eliminate the phosphorylation of BAD | binding to GST-Bcl-XL [2]: only the lower molecular weight band of the doublet was detected | effect of EGF stimulation on pro-apoptotic activity of the BAD mutant [3]: also suppressed by EGF stimulation
